{
  "source": "patent US10357539B2",
  "about": "“Use of peptides that block metadherin-SND1 interaction as treatment for cancer” (THE TRUSTEES OF PRINCETON UNIVERSITY, priority 2014, dated 2019)",
  "key": {"[1]": {"target": "T1, SND1 (Homo sapiens, UniProt Q7KZF4)", "T1 construct": "15 μg of His-SND1 (16-339) was added to the resin; made in house; host or cells: E. coli DH5α", "T1 sequence (Q7KZF4 1-339)": "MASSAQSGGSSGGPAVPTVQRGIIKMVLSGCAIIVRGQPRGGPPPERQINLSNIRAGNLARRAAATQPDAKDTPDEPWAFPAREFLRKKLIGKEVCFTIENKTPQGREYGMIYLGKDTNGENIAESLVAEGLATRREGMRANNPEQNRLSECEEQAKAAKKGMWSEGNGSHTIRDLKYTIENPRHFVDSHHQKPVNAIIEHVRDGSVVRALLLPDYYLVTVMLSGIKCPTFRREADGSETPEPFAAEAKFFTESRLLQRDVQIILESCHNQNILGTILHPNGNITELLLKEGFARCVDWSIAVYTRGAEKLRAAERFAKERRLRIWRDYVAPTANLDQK", "test": "GST-mediated pull-down of SND1 by GST-tagged MTDH fragments and mutants", "assay_type": "binding", "settings": "His6-SND1ΔC (1-339); Coomassie blue staining", "source_text": "FIGS. 7A-E represents determination of key regions and residues mediating the MTDH-SND1 interaction. (FIG. 7A) Schematics of MTDH fragments and mutants with indicated SND1-binding capability. + indicates binding and − indicates no binding based on results shown below. Two putative nuclear localization signals are residues 432-451 for NLS2 and residues 561-580 for NLS3. In the enlarged view of the minimal binding region 386-407, 9 residues were targeted for mutagenesis in the current study. […] (FIG. 7B) Pulldown of His6-SND1AC by GST-tagged MTDH fragments with indicated boundaries. The bound proteins were examined by SDS-PAGE and visualized by Coomassie blue staining. (FIG. 7C) Pulldown of His6-SND1ΔC by GST-tagged WT or triple mutant MTDH fragments (364-582). For (FIG. 7B) and (FIG. 7C), 1/10 of the His6-SND1ΔC input was shown, and GST alone was used as a negative control. Representative results of 3 independent experiments are shown. (FIG. 7D, FIG. 7E) Lysates from HEK293T cells expressing the indicated ectopic human SND1, AGO2 or MTDH were immunoprecipitated with anti-Myc and immunoblotted with the indicated antibodies.\n(FIG. 22A) In vitro pull-down of SND1 (16-339) by GST-tagged MTDH (364-582) harboring WT or mutant sequence. The proteins bound to GS4B were examined on SDS-PAGE and visualized by Coomassie blue staining. (FIG. 22B) In vitro pull-down of WT and mutant SND1 (16-339) by GST-tagged MTDH (364-582). The bound proteins were examined as in (FIG. 22A). For both (FIG. 22A) and (FIG. 22B), experiments were repeated three times; representative results are shown. The normalized percentage of binding was averaged from three experiments; mean±SEM was shown below the data. (FIG. 22C) HEK293T cells were transfected with human HA-SND1, WT Myc-MTDH or Myc-MTDH with indicated single point mutation. Lysates were immunoprecipitated with anti-Myc antibody and immunoblotted with the indicated antibodies. (FIG. 22D) HEK293T cells were transfected with human Myc-MTDH, WT HA-SND1 or mutant HA-SND1 with indicated single point mutations or deletions. Lysates were immunoprecipitated with anti-Myc and immunoblotted with the indicated antibodies.\nGST-Mediated Pull-Down Assay: ˜20 μg of GST-MTDH (different truncation forms and site mutants) was bound to 10 μl of glutathione resin via GST tag. The resin was washed with 200 μl assay buffer (25 mM Tris, PH8.0, 150 mM NaCl, 3 mM DTT) three times to remove the excess unbound protein. 15 μg of His-SND1 (16-339) was added to the resin in a 100 μl volume suspended in the assay buffer with 2 mg/ml of BSA. The mixture was washed with 200 μl assay buffer twice before examined by SDS-PAGE, and visualized by Coomassie blue staining. The experiments were repeated 3 times and the ratio of SND1 associated with GST-MTDH was analyzed by ImageJ."}, "[2]": {"target": "T2, SND1 (Mus musculus, UniProt Q78PY7)", "T2 construct": "endogenous in cells; host or cells: PyMT;Mtdh−/− (A9) or PyMT;Mtdh+/+ (A13) mouse mammary epithelial/tumor cells", "T2 sequence (Q78PY7 1-910)": "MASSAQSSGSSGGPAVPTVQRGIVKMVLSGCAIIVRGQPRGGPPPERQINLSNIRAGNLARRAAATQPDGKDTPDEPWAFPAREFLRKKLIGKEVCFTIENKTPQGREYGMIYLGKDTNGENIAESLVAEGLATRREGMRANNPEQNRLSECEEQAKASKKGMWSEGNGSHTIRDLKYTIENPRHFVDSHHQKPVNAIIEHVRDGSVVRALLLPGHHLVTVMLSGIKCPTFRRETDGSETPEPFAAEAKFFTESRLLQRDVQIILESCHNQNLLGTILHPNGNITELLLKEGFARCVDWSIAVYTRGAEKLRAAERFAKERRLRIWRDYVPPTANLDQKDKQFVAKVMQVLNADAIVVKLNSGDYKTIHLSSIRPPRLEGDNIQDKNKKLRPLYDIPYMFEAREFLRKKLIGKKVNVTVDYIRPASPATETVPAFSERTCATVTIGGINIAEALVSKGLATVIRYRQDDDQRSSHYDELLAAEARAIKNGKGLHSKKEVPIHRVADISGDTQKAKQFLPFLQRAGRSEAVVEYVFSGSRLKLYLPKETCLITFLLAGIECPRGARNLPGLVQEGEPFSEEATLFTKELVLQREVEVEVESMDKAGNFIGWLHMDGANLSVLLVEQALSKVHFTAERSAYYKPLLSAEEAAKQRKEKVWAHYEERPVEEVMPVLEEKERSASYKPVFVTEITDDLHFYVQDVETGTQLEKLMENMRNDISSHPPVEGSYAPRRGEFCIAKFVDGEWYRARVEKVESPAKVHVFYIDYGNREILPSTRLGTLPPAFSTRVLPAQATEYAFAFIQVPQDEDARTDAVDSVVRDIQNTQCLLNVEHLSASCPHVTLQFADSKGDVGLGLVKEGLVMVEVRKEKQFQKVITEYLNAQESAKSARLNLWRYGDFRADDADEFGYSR", "test": "Anti-MTDH immunoprecipitation from PyMT;Mtdh−/− tumor cells reconstituted with murine MTDH", "assay_type": "cell-based", "settings": "stably expressed in PyMT;Mtdh−/− tumor cells", "procedure": "(FIG. 8A, FIG. 8E) Lysates from PyMT;Mtdh−/− MECs reconstituted with vector control, WT or mutant murine MTDH were immunoprecipitated with anti-MTDH antibody and immunoblotted for indicated proteins. (FIG. 8B, FIG. 8F) Mammosphere assays were performed with PyMT;Mtdh−/− pMECs reconstituted with indicated Mtdh constructs. (FIG. 8C, FIG. 8D, FIG. 8G, FIG. 8H) In vivo tumor formation (FIG. 8C, FIG. 8G for tumor incidence; FIG. 8D, FIG. 8H for tumor volumes) were performed at limiting numbers using PyMT;Mtdh−/− pMECs reconstituted with indicated WT or mutant MTDH. *Note: mouse W391D MTDH corresponds to human W394D MTDH; and mouse W398D MTDH corresponds to human W401D MTDH. Statistics: (FIG. 8B, […]) Student's t-test. (FIG. 8C, FIG. 8G) Limiting dilution analysis. (FIG. 8D, FIG. 8H) Mann-Whitney test. Data represent mean±SEM. ***p<0.001, **p<0.01, *p<0.05.\n(FIG. 23A) Lysates from PyMT;Mtdh−/− tumor cells reconstituted with vector control, WT or mutant murine MTDH were immunoprecipitated with anti-MTDH antibody and immunoblotted for indicated proteins. Note all amino acid annotations are based on human MTDH. W394 and W401 of human MTDH correspond to W391 and W398 in murine MTDH, respectively. (FIG. 23B) Mammosphere assays were performed with PyMT;Mtdh−/− tumor cells reconstituted with indicated MTDH constructs. (FIG. 23C-E) In vivo tumor formation (FIG. 23C for tumor incidence; FIG. 23D, FIG. 23E for tumor volumes) were performed at limiting numbers using PyMT;Mtdh−/− tumor cells reconstituted with indicated WT or mutant MTDH. Statistics: (FIG. 23B) Student's t-test. Data represent mean±SEM. (FIG. 23C) Limiting dilution analysis. (FIG. 23D, FIG. 23E) Mann-Whitney test. **p<0.01, *p<0.05.\nImmunoprecipitation and western blot For immunoprecipitation (IP) experiments, cultured cells were washed in cold PBS and lysed in lysis buffer (20 mM Tris pH 7.4, 0.15 M NaCl, 1 mM EDTA, 1 mM EGTA, 1% Tx-100, 0.0025 M Na2P2O7, 1 mM α-glycerolphosphate, 1 mM Na3VO4, and 1 mM NaF) with an EDTA-free protease inhibitor mixture (Roche Applied Science) and PMSF. Cell lysates were then incubated on ice for 10 min, centrifuged, and precleared by incubating with protein A/G beads (Santa Cruz Biotechnology) for 1 h at 4° C. For IP bead preparation, 30 μl of protein A/G beads were incubated with 5 μg of antibodies for 2 h at 4° C. IPs were carried out for overnight at 4° C., and beads were centrifuged, washed and subsequently boiled for 5 min in SDS protein loading buffer to elute bound protein. IP lysates were subjected to western blotting with indicated antibodies. […]"}},
  "note": "Where no end group is shown, it is not given here.",
  "data": [
    {"molecule": "22 amino-acid fragment (residues 386-407): GST-tagged minimal SND1-binding fragment of MTDH, residues 386-407 (SSADPNSDWNAPAEEWGNWVDE; also: GST-tagged fragment (tag left off))", "values": [
      {"measurement": "SND1-binding of MTDH fragments and triple mutants, in vitro", "setting": "[1]", "result": "sufficient for SND1-binding"}
    ]},
    {"molecule": "MTDH fragment 364-582: GST-tagged MTDH fragment, amino acids 364-582 of SEQ ID NO: 1 (protein, listed as Homo sapiens, GST tag) YQWDVSRNQPYIDDEWSGLNGLSSADPNSDWNAPAEEWGNWVDEERASLLKSQEPIPDDQKVSDDDKEKGEGALPTGKSKKKKKKKKKQGEDNSTAQDTEELEKEIREDLPVNTSKTRPKQEKAFSLKTISTSDPAEVLVKNSQPIKTLPPATSTEPSVILSKSDSDKSSSQVPPILQETDKSKSNTKQNSVPPSQTKSETSWESPKQIKKKKKARRET", "values": [
      {"measurement": "SND1-binding of MTDH fragments and triple mutants, in vitro", "setting": "[1]", "result": "bound stoichiometrically"}
    ]},
    {"molecule": "TPM3: MTDH triple-point mutant W404D, D406R and E407R (protein, left off: a dimerising Fc or GST, MTDH triple-point mutant W404D, D406R and E407R) YQWDVSRNQPYIDDEWSGLNGLSSADPNSDWNAPAEEWGNDVRRERASLLKSQEPIPDDQKVSDDDKEKGEGALPTGKSKKKKKKKKKQGEDNSTAQDTEELEKEIREDLPVNTSKTRPKQEKAFSLKTISTSDPAEVLVKNSQPIKTLPPATSTEPSVILSKSDSDKSSSQVPPILQETDKSKSNTKQNSVPPSQTKSETSWESPKQIKKKKKARRET", "values": [
      {"measurement": "SND1-binding of MTDH fragments and triple mutants, in vitro", "setting": "[1]", "result": "bound SND1ΔC as effectively as the WT MTDH"}
    ]},
    {"molecule": "murine TPM1: murine Mtdh triple mutant D386R, D390R, W391D (protein, UniProt Q80WJ7 1-579, looked up, variant D386R D390R W391D) Protein LYRIC: MAARSWQDELAQQAEEGSARLRELLSVGLGFLRTELGLDLGLEPKRYPGWVILVGTGALGLLLLFLLGYGWAAACAGARKKRRSPPRKREEAAPPTPAPDDLAQLKNLRSEEQKKKNRKKLPEKPKPNGRTVEVPEDEVVRNPRSITAKQAPETDKKNEKSKKNKKKSKSDAKAVQNSSRHDGKEVDEGAWETKISHREKRQQRKRDKVLTDSGSLDSTIPGIENIITVTTEQLTTASFPVGSKKNKGDSHLNVQVSNFKSGKGDSTLQVSSRLNENLTVNGGGWSEKSVKLSSQLSEEKWNSVPPASAGKRKTEPSAWTQDTGDTNANGKDWGRNWSDRSIFSGIGSTAEPVSQSTTSDYQWDVSRNQPYIDDEWSGLNGLSSARPSSRDNAPAEEWGNWVDEDRASLLKSQEPISNDQKVSDDDKEKGEGALPTGKSKKKKKKKKKQGEDNSHTQDTEDLEKDTREELPVNTSKARPKQEKACSLKTMSTSDPAEVLIKNSQPVKTLPPAISAEPSITLSKGDSDNSSSQVPPMLQDTDKPKSNAKQNSVPPSQTKSETNWESPKQIKKKKKARRET", "values": [
      {"measurement": "interaction of murine MTDH mutants with SND1", "setting": "[2]", "result": "lost the ability to interact with SND1"}
    ]}
  ]
}
